The values below come from PMC12670400, “LEKTI-Grafted Sunflower Trypsin Inhibitor: A Potential Therapeutic for Skin Diseases” (Journal of Medicinal Chemistry, 2025).

Bridge positions count the residues as written; N and C are the ends. Ends that are not written are not given here. Some results are limits rather than exact numbers.

In assay [1] the test system is KLK5-mediated PAR2 activation. Kind of assay: PAR2-dependent intracellular calcium mobilization assay in N/TERT keratinocytes. The format is cell-based. The settings on record: peptide 400 μM. The source says: PAR2, a member of the G-protein-coupled receptor family expressed in keratinocytes, is a known downstream target of KLK5. KLK5 activates PAR2 by cleaving its extracellular N-terminal domain. This cleavage exposes a tethered ligand, which binds PAR2 intramolecularly to activate the receptor. , Activated PAR2 causes protein kinase C (PKC) and inositol 1,4,5-trisphosphate (IP3) activation, leading to calcium release from the endoplasmic reticulum, known as intracellular calcium mobilization. […] This delay is attributed to the time required for KLK5 to enzymatically cleave the extracellular N-terminal domain of PAR2, thereby exposing the tethered ligand sequence necessary to initiate receptor activation and downstream calcium signaling. […] This observation confirmed PAR2-dependent calcium mobilization and that rKLK5 could initiate PAR2 activation. The inhibition potential of lead 7 on KLK5 activity was then assessed by using this assay. rKLK5 was preincubated with lead 7 at concentrations of 2.5, 5, 20, or 40 μM for one hour before being applied to cultured keratinocytes, after which PAR2-dependent calcium mobilization was measured.
For Ki calculation, Km values for KLK5 and its substrate Boc-VPR-AMC were previously reported in the literature 8, 9, allowing the conversion from IC50 to Ki using the Cheng Prusoff equation10 Kᵢ = IC₅₀ / (1 + [S]/Kₘ) for single-site competitive binding.
Cell lines and tissue cultures
Keratinocytes isolated from the skin in a patient with genetic skin disease Netherton Syndrome (NS19) and in healthy donors (C42, C46, P8) were used in the study. […]
The immortalized keratinocyte cell line (N/TERT)13, 14 were used for the assay. […] The cells were counted, and 100 µL of the suspension, at a density of 600,000 cells/mL, was seeded into each well of a 96 -well microplate. […]
calcium signalling. […] Fluorescence excitation was set at 485 nm, and emission was recorded at 520 nm using SpectraMax® i3x plate reader. […]
(In general: Calcium flux is commonly read through the fluorescence of an indicator in the cells.)

The target of assay [2] is T1, KLK7 (Homo sapiens, UniProt P49862). More on the design: purchased R&D Systems 2624-SE. The settings on record: read-out: Ki against KLK7; cited from earlier work.
Target sequence in this assay (P49862 30-253): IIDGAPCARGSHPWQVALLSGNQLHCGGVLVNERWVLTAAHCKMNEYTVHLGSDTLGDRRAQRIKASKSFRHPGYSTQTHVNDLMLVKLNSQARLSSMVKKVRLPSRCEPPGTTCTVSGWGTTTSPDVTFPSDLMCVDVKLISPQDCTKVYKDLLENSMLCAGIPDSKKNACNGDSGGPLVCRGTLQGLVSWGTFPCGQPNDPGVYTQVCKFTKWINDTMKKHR
The target in assay [3] is T2, Kallikrein-related peptidase 5 (KLK5) (UniProt Q9Y337 23-293). In words: enzyme inhibition assay (fluorogenic substrate); inhibition of KLK5 activity by the peptide, fluorogenic substrate Boc-VPR-AMC, n = 3; conditions in the Supporting Information. The settings on record: both partners purified.
In assay [4] the target is T3, KLK14 (UniProt Q9P0G3).
T3 sequence (Q9P0G3 41-267, species assumed, looked up): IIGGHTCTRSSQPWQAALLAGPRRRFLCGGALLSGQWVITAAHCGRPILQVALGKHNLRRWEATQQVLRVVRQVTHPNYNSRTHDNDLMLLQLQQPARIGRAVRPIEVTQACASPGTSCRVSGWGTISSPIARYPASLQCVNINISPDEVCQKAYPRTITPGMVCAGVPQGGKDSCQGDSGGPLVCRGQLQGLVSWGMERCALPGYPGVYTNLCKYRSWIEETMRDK
In words: enzyme inhibition assay (fluorogenic substrate); selectivity: inhibition of KLK7, KLK8 or KLK14 activity by the peptide, n = 3; substrates and conditions in the Supporting Information.

Assay [5] addresses T1, KLK7. The assay is described as above.
For assay [6], the target named is T2, Kallikrein-related peptidase 5 (KLK5). Kind of assay: enzyme inhibition assay (fluorogenic substrate); inhibition of KLK5 activity by the peptide, fluorogenic substrate Boc-VPR-AMC, n = 3; conditions in the Supporting Information. The settings on record: both partners purified. This is another data set of the same source.
Assay [7] deals with T4, KLK8 (UniProt O60259 33-260).
T4 construct: Kallikrein 8 (KLK8); construct and source are in the Supporting Information
T4 sequence (looked up): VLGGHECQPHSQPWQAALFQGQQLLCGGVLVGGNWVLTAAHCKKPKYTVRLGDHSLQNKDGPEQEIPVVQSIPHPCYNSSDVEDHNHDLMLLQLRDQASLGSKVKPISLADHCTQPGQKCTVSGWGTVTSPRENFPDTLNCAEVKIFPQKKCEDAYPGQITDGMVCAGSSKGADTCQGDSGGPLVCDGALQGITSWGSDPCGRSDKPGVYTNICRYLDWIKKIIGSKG
In words: enzyme inhibition assay (fluorogenic substrate); selectivity: inhibition of KLK7, KLK8 or KLK14 activity by the peptide, n = 3; substrates and conditions in the Supporting Information. The settings on record: both partners purified.

Assay [8] deals with T5, KLK5 (Homo sapiens, UniProt Q9Y337).
T5 construct: purchased R&D Systems 1108-SE
T5 sequence (Q9Y337 23-293): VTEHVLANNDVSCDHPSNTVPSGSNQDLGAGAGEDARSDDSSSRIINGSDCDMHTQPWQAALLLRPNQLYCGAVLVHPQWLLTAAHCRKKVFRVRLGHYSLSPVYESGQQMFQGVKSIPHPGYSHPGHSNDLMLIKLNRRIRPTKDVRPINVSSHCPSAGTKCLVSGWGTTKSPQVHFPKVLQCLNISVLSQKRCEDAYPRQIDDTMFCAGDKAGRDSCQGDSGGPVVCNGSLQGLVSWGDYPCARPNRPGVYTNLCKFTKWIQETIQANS
The settings on record: prior findings, reference not given; read-out: Ki against KLK5; cited from earlier work.

LRGILS-NH2 [R-AP, reference compound]: the “calcium mobilization on stimulation of keratinocytes” value in assay [1] was “did not induce calcium mobilization”.

With SLIGRL-NH2 [AP, reference compound], the “calcium mobilization on stimulation of keratinocytes” value in assay [1] was “PAR2-dependent calcium mobilization was observed”.

In the case of “α1-antichymotrypsin [reference compound]”, the Ki – broadly, the dissociation constant of the complex between target and ligand, obtained from inhibition or displacement – in assay [2] was 500 nM.

B1: LEKTI-grafted SFTI analogue, lead 7 (peptide)
peptide: cyclo(GFCTRSNPPECWPN)
modifications: disulfide 3-11 (inferred)
notes: SFTI scaffold grafted with residues of a LEKTI domain, glutamic acid at position 10; source: synthetic peptide (hydrazide peptide, cyclised via native chemical ligation, oxidised, RP-HPLC purified)
Turning to B1, the IC50 (usually the midpoint of a concentration-inhibition curve) was 14 ± 4 nM in assay [3], above 1000 nM in assay [4], above 1000 nM in assay [5] and above 1000 nM in assay [7]. In addition, the Ki in assay [6] is 11 nM.

B2: SFTI analogue 8 (peptide)
peptide: cyclo(GFCHRSYPPECWPN)
modifications: disulfide 3-11 (inferred)
notes: SFTI scaffold grafted with residues of a LEKTI or LEKTI-like domain, glutamic acid at position 10; also called compound 8; source: synthetic peptide (hydrazide peptide, cyclised via native chemical ligation, oxidised, RP-HPLC purified)
With B2, the IC50 was 8.6 ± 2 nM in assay [3], above 1000 nM in assay [5] and above 1000 nM in assay [7]. The Ki in assay [6] is 8 nM.

B3: LEKTI Domain 5: domain 5 of the endogenous serine protease inhibitor LEKTI (protein)
chain: REIVKLCSQYQNQAKNGILFCTRENDPIRGPDGKMHGNLCSMCQAYFQAENEEKKKAEARAR
modifications: Kazal-type disulfides
In the case of B3, the Ki in assay [8] was 32.8 nM.

B4: LEKTI Domain 6: domain 6 of the endogenous serine protease inhibitor LEKTI (protein)
chain: ESGKATSYAELCNEYRKLVRNGKLACTRENDPIQGPDGKVHGNTCSMCEVFFQAEEEEKKKKEGESRN
modifications: Kazal-type disulfides
Regarding B4, the inhibitory constant (Ki) in assay [8] was 83.3 nM.
